Here are results for 21 molecules from US20210246204A1 (Alector, published 2021).

B1: S7AB-H8.1 (antibody, V domains shown)
VH: QVQLVQSGAEVKKPGASVKVSCKASGYAFTETWMNWVRQAPGQGLEWIGRIFPGLGHTNYAQKFQGRATLTEDTSTSTAYMELSSLRSEDTAVYYCARDYSDYYFDYWGQGTLVTVSS
VL: DIQMTQSPSSLSASVGDRVTITCRGSQDINTYLNWYQQKPGKAPKLLIYYTSRLHSGVPSRFSGSGSGTDYTLTISSLQPEDFATYYCQQGNLLPWTFGQGTKLEIK
B2: S7AB-H8.4 (antibody, V domains shown)
VH: B1 VH with E31A, T32A
VL: B1 VL
B3: S7AB-H8.3 (antibody, V domains shown)
VH: B1 VH with E31G, T32Y
VL: B1 VL
B4: S7AB-H8.2 (antibody, V domains shown)
VH: B1 VH with E31M, T32A, L55Y
VL: B1 VL
B5: S7AB-H8.35.1 (antibody, V domains shown)
VH: B1 VH with T32A, G44R, L55Y
VL: B1 VL with N92G, L93T
B6: S7AB-H8.35.2 (antibody, V domains shown)
VH: B1 VH with T32A, P41R, G44R, L55Y
VL: B1 VL with N92G, L93T
B7: S7AB-H8.30.2 (antibody, V domains shown)
VH: B1 VH with T32A, P41R, G44R, L55Y
VL: B1 VL with G25A, I29A
B8: S7AB-H8.10.2 (antibody, V domains shown)
VH: B1 VH with T32A, P41R, G44R, L55Y
VL: B1 VL with L93T, L94K
B9: S7AB-H8.9.1 (antibody, V domains shown)
VH: B1 VH with E31A, T32A, G44R
VL: B1 VL with L93T, L94K
B10: S7AB-H8.34.1 (antibody, V domains shown)
VH: B1 VH with E31A, T32A, G44R
VL: B1 VL with N92G, L93T
B11: S7AB-H8.44.2 (antibody, V domains shown)
VH: B1 VH with E31A, T32A, P41R, G44R
VL: B1 VL with L93I
B12: S7AB-H8.45.2 (antibody, V domains shown)
VH: B1 VH with T32A, P41R, G44R, L55Y
VL: B1 VL with L93I
B13: S7AB-H8.29.1 (antibody, V domains shown)
VH: B1 VH with E31A, T32A, G44R
VL: B1 VL with G25A, I29A
B14: S7AB-H8.45.1 (antibody, V domains shown)
VH: B1 VH with T32A, G44R, L55Y
VL: B1 VL with L93I
B15: S7AB-H8.30.1 (antibody, V domains shown)
VH: B1 VH with T32A, G44R, L55Y
VL: B1 VL with G25A, I29A
B16: S7AB-H8.9.2 (antibody, V domains shown)
VH: B1 VH with E31A, T32A, P41R, G44R
VL: B1 VL with L93T, L94K
B17: S7AB-H8.29.2 (antibody, V domains shown)
VH: B1 VH with E31A, T32A, P41R, G44R
VL: B1 VL with G25A, I29A
B18: S7AB-H8.34.2 (antibody, V domains shown)
VH: B1 VH with E31A, T32A, P41R, G44R
VL: B1 VL with N92G, L93T
B19: S7AB-H8.10.1 (antibody, V domains shown)
VH: B1 VH with T32A, G44R, L55Y
VL: B1 VL with L93T, L94K
B20: S7AB-H8.44.1 (antibody, V domains shown)
VH: B1 VH with E31A, T32A, G44R
VL: B1 VL with L93I
B21: S7AB chimeric antibody (antibody, V domains shown)
VH: QVHLQQSGPELVKPGASVKISCKASGYAFTNCWMNWVRQRPGKGLDWIGRIFPGNGHTNYSGKFKDKATLTEDKSSSTAYMQLSSLTSEDSAVYFCARDYSDYYFDYWGQGTTLTVSS
VL: DVQMTQTTSSLSASLGDRVTISCRASQDINTYLNWYQQKPDGTVKLLIYYTSRLHSGVPSRFSGSGSGTDYSLTISNLEQEDIATYFCQQGNTLPWTFGGGTKLEIK

Residue numbers refer to the chain shown, from its start.

Sequence of human Siglec-7 on primary human monocyte-derived dendritic cells (Q9Y286 19-467): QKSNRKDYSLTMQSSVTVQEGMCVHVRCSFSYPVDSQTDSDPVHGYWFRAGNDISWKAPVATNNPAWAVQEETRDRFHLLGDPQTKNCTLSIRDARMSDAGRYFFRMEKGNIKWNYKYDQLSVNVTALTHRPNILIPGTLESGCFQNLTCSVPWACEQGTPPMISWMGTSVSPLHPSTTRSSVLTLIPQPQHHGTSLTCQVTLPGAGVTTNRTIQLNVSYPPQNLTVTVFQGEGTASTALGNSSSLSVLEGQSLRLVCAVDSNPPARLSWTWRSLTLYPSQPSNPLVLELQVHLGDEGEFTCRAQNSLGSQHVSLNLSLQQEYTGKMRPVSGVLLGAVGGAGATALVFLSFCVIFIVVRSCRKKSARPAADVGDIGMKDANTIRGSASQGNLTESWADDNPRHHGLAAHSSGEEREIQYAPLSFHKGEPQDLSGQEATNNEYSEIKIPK

The target of one test is T1, histidine-tagged human Siglec-7 (NovoProtein) (human, UniProt Q9Y286 19-353).
T1 construct: Bought protein; also called recombinant human Siglec-7; recombinant Siglec-7; not shown: histidine tag
T1 sequence (Q9Y286 19-353 limits assumed): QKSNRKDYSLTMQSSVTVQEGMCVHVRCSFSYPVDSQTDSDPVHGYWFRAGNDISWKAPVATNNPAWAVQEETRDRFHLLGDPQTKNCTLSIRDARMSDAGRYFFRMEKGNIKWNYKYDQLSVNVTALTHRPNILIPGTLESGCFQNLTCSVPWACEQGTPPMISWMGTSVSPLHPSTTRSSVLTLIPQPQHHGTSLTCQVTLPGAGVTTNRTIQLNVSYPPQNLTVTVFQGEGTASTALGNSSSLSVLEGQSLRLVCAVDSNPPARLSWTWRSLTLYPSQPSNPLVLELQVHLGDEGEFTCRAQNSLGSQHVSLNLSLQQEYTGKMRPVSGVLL
Description: BLI, antibody captured. The protocol: In this assay, the humanized antibodies were compared directly to S7AB. Briefly, the antibodies were captured on anti-human or anti-mouse IgG Fc Biosensors (Pall ForteBio). Varying concentrations (0-100 nM) of histidine-tagged human Siglec-7 (NovoProtein) were then bound to the captured anti-Siglec-7 surface (200 s association time, 900 s dissociation time). Multi-concentration kinetic analysis was performed using a 1:1 interaction model to extract association and dissociation rate constants (kₐ and kd, respectively) for each antibody. Apparent affinity constants (KD) were calculated from the ratio kd/kₐ.
The affinities of S7AB-H8 and variants S7AB-H8.1 through S7AB-H8.45 for human Siglec-7 were measured by BioLayer Interferometry according to the method described in Example 1 above.
B1: the dissociation constant (Kd) stood at 0.574 nM, the “fold improvement over S7AB-H8” value worked out at 1.8 fold, the koff is 7.05e-05 s⁻¹ and the kon came to 123000 M⁻¹ s⁻¹.
With B2, the Kd came to 0.214 nM, the “fold improvement over S7AB-H8” value is 4.9 fold, the koff worked out at 3.15e-05 s⁻¹ and the kon came to 147000 M⁻¹ s⁻¹.
In the same order, the values of B3 are 0.294 nM, 3.6 fold, 6.05e-05 s⁻¹ and 206000 M⁻¹ s⁻¹.
In the same order, the values of B4 are 0.227 nM, 4.6 fold, 3.23e-05 s⁻¹ and 142000 M⁻¹ s⁻¹.

A further test has as its target human Siglec-7 on primary human monocyte-derived dendritic cells (human, UniProt Q9Y286 19-467). Description: cell-based or functional assay.
In the case of B1, the “Fold increase in potency compared to AB-H8” value (“Fold increase … to AB-H8” below) was found to be 2.9 fold; the “Fold increase in potency compared to Chimeric Ab” value (from here on “Fold increase … to Chimeric Ab”) worked out at 8.7 fold; the “Maximal downregulation (% Siglec-7 remaining)” value was 10.9%; the “Receptor downregulation, (EC50) (pM)” value was 117 pM.
The matching figures for B5: 2 fold, 5.9 fold, 10.5% and 184 pM.
The matching figures for B6: 1.8 fold, 5.3 fold, 10.8% and 205 pM.
In the same order, the values of B7 are 3.2 fold, 9.4 fold, 10.1% and 115 pM.
Consider B8, for which the “Fold increase … to AB-H8” value is 2.1 fold; the “Fold increase … to Chimeric Ab” value is 6.4 fold; the “Maximal downregulation (% Siglec-7 remaining)” value is 12.1%; the “Receptor downregulation, (EC50) (pM)” value is 169 pM.
B9: the “Fold increase … to AB-H8” value was determined as 3.5 fold; the “Fold increase … to Chimeric Ab” value was found to be 10.5 fold; the “Maximal downregulation (% Siglec-7 remaining)” value is 4.3%; the “Receptor downregulation, (EC50) (pM)” value came out at 103 pM.
The matching figures for B10: 3.6 fold, 10.9 fold, 4.4% and 99.5 pM.
The matching figures for B11: 4.7 fold, 14.1 fold, 3.3% and 76.7 pM.
On to B12, for which the “Fold increase … to AB-H8” value came out at 3.3 fold; the “Fold increase … to Chimeric Ab” value was 9.9 fold; the “Maximal downregulation (% Siglec-7 remaining)” value turned out to be 8.7%; the “Receptor downregulation, (EC50) (pM)” value came to 109 pM.
As for B13, the “Fold increase … to AB-H8” value is 6.8 fold; the “Fold increase … to Chimeric Ab” value was found to be 20.4 fold; the “Maximal downregulation (% Siglec-7 remaining)” value was 5.3%; the “Receptor downregulation, (EC50) (pM)” value worked out at 53.2 pM.
The matching figures for B14: 3.7 fold, 11.2 fold, 7.8% and 97 pM.
Turning to B15, the “Fold increase … to AB-H8” value is 2.7 fold; the “Fold increase … to Chimeric Ab” value came out at 8.1 fold; the “Maximal downregulation (% Siglec-7 remaining)” value was 11.3%; the “Receptor downregulation, (EC50) (pM)” value turned out to be 134 pM.
The matching figures for B16: 3.1 fold, 9.2 fold, 4.5% and 118 pM.
The matching figures for B17: 4.1 fold, 12.2 fold, 4.9% and 88.9 pM.
In the same order, the values of B18 are 3.3 fold, 9.9 fold, 5.4% and 110 pM.
Consider B19, for which the “Fold increase … to AB-H8” value was determined as 2.4 fold; the “Fold increase … to Chimeric Ab” value stood at 7 fold; the “Maximal downregulation (% Siglec-7 remaining)” value is 10.7%; the “Receptor downregulation, (EC50) (pM)” value amounted to 154 pM.
As to B20, the “Fold increase … to AB-H8” value amounted to 4.9 fold; the “Fold increase … to Chimeric Ab” value came to 14.7 fold; the “Maximal downregulation (% Siglec-7 remaining)” value came to 4.1%; the “Receptor downregulation, (EC50) (pM)” value is 73.9 pM.
In the same order, the values of B2 are 4.3 fold, 12.9 fold, 4.5% and 79.5 pM.
The matching figures for B3: 3.8 fold, 11.5 fold, 20.1% and 89.2 pM.
On to B4, for which the “Fold increase … to AB-H8” value worked out at 3.9 fold; the “Fold increase … to Chimeric Ab” value turned out to be 11.8 fold; the “Maximal downregulation (% Siglec-7 remaining)” value was 3.3%; the “Receptor downregulation, (EC50) (pM)” value was 87 pM.
Consider B21, for which the “Maximal downregulation (% Siglec-7 remaining)” value was 28.6% and the “Receptor downregulation, (EC50) (pM)” value amounted to 1024 pM.

For orientation: Kd means the equilibrium constant for the complex coming apart. For orientation: koff means a measure of how fast the partners let go of each other. High values mean a short-lived complex, low ones a long-lived complex. Usually kon stands for the rate constant with which the complex forms. A lower kon goes with slower complex formation.
